Sequences and labels used below:
B2: human L-plastin (other, UniProt P13796 2-627, looked up)
chain: ARGSVSDEEMMELREAFAKVDTDGNGYISFNELNDLFKAACLPLPGYRVREITENLMATGDLDQDGRISFDEFIKIFHGLKSTDVAKTFRKAINKKEGICAIGGTSEQSSVGTQHSYSEEEKYAFVNWINKALENDPDCRHVIPMNPNTNDLFNAVGDGIVLCKMINLSVPDTIDERTINKKKLTPFTIQENLNLALNSASAIGCHVVNIGAEDLKEGKPYLVLGLLWQVIKIGLFADIELSRNEALIALLREGESLEDLMKLSPEELLLRWANYHLENAGCNKIGNFSTDIKDSKAYYHLLEQVAPKGDEEGVPAVVIDMSGLREKDDIQRAECMLQQAERLGCRQFVTATDVVRGNPKLNLAFIANLFNRYPALHKPENQDIDWGALEGETREERTFRNWMNSLGVNPRVNHLYSDLSDALVIFQLYEKIKVPVDWNRVNKPPYPKLGGNMKKLENCNYAVELGKNQAKFSLVGIGGQDLNEGNRTLTLALIWQLMRRYTLNILEEIGGGQKVNDDIIVNWVNETLREAKKSSSISSFKDPKISTSLPVLDLIDAIQPGSINYDLLKTENLNDDEKLNNAKYAISMARKIGARVYALPEDLVEVNPKMVMTVFACLMGKGMKRV
notes: mature; the assay field says which; also called L-fimbrin; endogenous L-plastin

One series addresses T1, GST-ABD1+2 of L-plastin (human, UniProt P13796 106-627).
T1 construct: domain: ABD1+2; also called both ABDs combined; combination of the two ABDs; not shown: glutathione S-transferase tag of vector pGEX-2T
T1 sequence (looked up): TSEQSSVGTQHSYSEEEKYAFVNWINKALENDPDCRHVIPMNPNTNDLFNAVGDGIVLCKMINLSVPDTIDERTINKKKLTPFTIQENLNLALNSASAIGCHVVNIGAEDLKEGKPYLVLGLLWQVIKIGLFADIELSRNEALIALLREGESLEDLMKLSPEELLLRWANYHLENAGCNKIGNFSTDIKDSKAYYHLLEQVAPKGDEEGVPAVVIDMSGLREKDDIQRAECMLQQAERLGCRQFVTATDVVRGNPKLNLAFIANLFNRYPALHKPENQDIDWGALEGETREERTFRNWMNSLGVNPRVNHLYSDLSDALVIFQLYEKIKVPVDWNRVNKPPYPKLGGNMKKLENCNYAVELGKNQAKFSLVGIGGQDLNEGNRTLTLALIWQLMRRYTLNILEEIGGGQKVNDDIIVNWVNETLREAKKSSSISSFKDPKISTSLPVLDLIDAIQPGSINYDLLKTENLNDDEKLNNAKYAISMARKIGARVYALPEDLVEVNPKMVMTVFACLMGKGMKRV
Briefly: ITC, nanobody with GST-tagged L-plastin domain. (In general: In ITC the heat of successive injections is recorded.)

The target of the series “human L-plastin” is B2. The experiment in a line: ITC, L-plastin titrated with His6-tagged nanobody.
Series [1] deals with the molecule itself. The experiment in a line: Superdex 200 HR gel filtration of L-plastin alone. In general terms: In gel filtration, larger molecules generally elute earlier.

We go through 2 molecules from WO2010108824A1 (dated 2010).

B1: L-plastin nanobody 5 (VHH)
VHH: QVQLQESGGGLVQAGDSLRLSCAVSGGTFGRVGVGWFRRAPGKEREFVAAVNWSGISTFYADSVKGRFTISRDDNKHTVDLRMNSLKPEDSAVYFCATDFRFNVPMNGTEYDYWGQGTQVTVSS
notes: Alpaca VHH; His6-tagged recombinant protein (pHEN6c, E. coli) in ITC, gel filtration, pull-down, cross-linking and co-sedimentation; V5-tagged, MOM-V5-tagged or GFP-fused when expressed in PC-3 cells; also called Nb 5; Nb5
One may read the Kd as the constant that tells how readily two partners part at equilibrium. Higher therefore signals weaker binding. For B1, the results for the Kd in the series with GST-ABD1+2 of L-plastin and in the series with human L-plastin were 46.5 nM and roughly 40 nM, respectively.

As for B2, the binding result in series [1] is given as “binds”.
